How the values were obtained:
ALK-positive NSCLC = details: monotherapy; phase 2 study, subgroups with prior ALK TKI treatment; cited from earlier work
[1] = Pharmacokinetics from blood samples; assay type: in vivo, human; details: serum, in combination with lorlatinib or crizotinib

Row | Compound | Median PFS (ALK-positive NSCLC) | Ctrough level at steady state ([1]; at cycle 2) | Cmax on cycle 1 day 1 versus cycle 2 day 1 [1]
1 | C[C@H]1Oc2cc(cnc2N)-c2c(nn(C)c2C#N)CN(C)C(=O)c2ccc(F)cc21 [Lorlatinib, lorlatinib] | 6.9–7.3 mo | – | –
2 | avelumab | – | above 10 μg/mL | similar

Source: PMC11260014 (JTO Clinical and Research Reports, 2024)
